± gives the standard deviation of the averaged measurements.
System: ATP
Experiment: switch fluorescence ratio, 500 uM ATP over buffer (Cy3 cluster intensity, sum of 5 cycles each) (fold (ratio)); higher = stronger signal-on switching upon ATP binding; sequences stand for … in TCGTCGGCAGCGTCAGATGTGTATAAGAGACAGTTTTTTTTTTTTTTTTTTTTTTTTT…TC
Settings: aptamer strand: ATP DNA aptamer (quencher-CACCTGGGGGAGTATTGCGGAGGAAGG + anchor), 100 nM annealed; ATP concentration: 500 uM
Outline: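 Between each of five buffer/ATP cycles, the flow-cell was stripped with NaOH and re-annealed. Each cycle imaged Cy3-labelled switching-strand clusters, annealed to 100 nM quencher-labelled ATP aptamer on a modified Illumina MiSeq flow-cell, first in selection buffer and then after 15 min with 500 uM ATP at 22 °C. The fluorescence ratio is summed target-cycle over summed buffer-cycle Cy3 intensity per cluster, averaged per switch-domain sequence, with clusters outside 100-1000 RFU excluded.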
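Further: ATP exposure 15 min at 22 °C before imaging.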

Row | Sequence | switch fluorescence ratio
1 | TGAAAAAGTT | 1.32 ± 0.47
2 | TGAAAAATTG | 0.985 ± 0.053
3 | TGAAAAGAAG | 1.029 ± 0.0061
4 | TGAAAAGGTC | 0.982 ± 0.063
5 | TGAAAAGTCG | 0.99334 ± 0.00072
6 | TGAAAATCTT | 1.18 ± 0.25
7 | TGAAAATTGA | 0.999 ± 0.017
8 | TGAAACTATT | 1.01 ± 0.027
9 | TGAAACTTGA | 1.042 ± 0.0055
10 | TGAAAGGGGG | 0.99 ± 0.014
11 | TGAAATATGG | 1 ± 0.017
12 | TGAAATGCTA | 1.036 ± 0.0073
13 | TGAAATTAGT | 1.01 ± 0.013
14 | TGAAATTGGA | 0.999 ± 0.015
15 | TGAAATTTTG | 1.01 ± 0.015
16 | TGAACATTTG | 1.03 ± 0.025
17 | TGAACCGCTA | 1.81 ± 0.16
18 | TGAACGGGTG | 1.04 ± 0.068
19 | TGAACTTGAC | 1.14 ± 0.052
20 | TGAAGAACGC | 1.07 ± 0.021
21 | TGAAGACAAC | 1.04 ± 0.025
22 | TGAAGATTTT | 0.9704 ± 0.0081
23 | TGAAGCGGCG | 0.942 ± 0.023
24 | TGAAGCTGAT | 1.02 ± 0.059
25 | TGAAGCTGGG | 1.07 ± 0.12

Row | Sequence | switch fluorescence ratio
26 | TGAAGGCTTA | 0.994 ± 0.024
27 | TGAAGGGGCA | 0.951 ± 0.041
28 | TGAAGGTCGG | 0.9917 ± 0.0039
29 | TGAATAGGGG | 0.989 ± 0.0095
30 | TGAATCAACA | 1.04 ± 0.037
31 | TGAATGACGT | 0.972 ± 0.04
32 | TGAATGAGTT | 1.02 ± 0.03
33 | TGAATGATC | 1 ± 0.043
34 | TGAATGGGCA | 0.973 ± 0.024
35 | TGAATGTTGG | 0.988 ± 0.025
36 | TGAATTATTT | 1.02 ± 0.035
37 | TGAATTGGGG | 1.06 ± 0.084
38 | TGAATTTTTA | 1 ± 0.011
39 | TGAATTTTTT | 0.993 ± 0.028
40 | TGACAGTATC | 1.08 ± 0.011
41 | TGACAGTGGG | 0.959 ± 0.04
42 | TGACATAGGA | 1.001 ± 0.0029
43 | TGACATCGGG | 1.01 ± 0.033
44 | TGACCATTGC | 1.093 ± 0.0059
45 | TGACCCTTTT | 1 ± 0.077
46 | TGACCGGAGT | 1.03 ± 0.033
47 | TGACCTGAGA | 1.04 ± 0.021
48 | TGACCTGGCT | 1.04 ± 0.035
49 | TGACGAAGGG | 0.987 ± 0.023
50 | TGACGATAGG | 0.995 ± 0.013

Row | Sequence | switch fluorescence ratio
51 | TGACGGGGCG | 1.03 ± 0.05
52 | TGACGGGGGG | 1.06 ± 0.12
53 | TGACGGGGGT | 0.989 ± 0.028
54 | TGACGGGGTG | 1.01 ± 0.044
55 | TGACGGTGGG | 0.962 ± 0.023
56 | TGACGTAAGG | 0.994 ± 0.026
57 | TGACTGAAGG | 0.9503 ± 0.0065
58 | TGACTGTATT | 1.14 ± 0.042
59 | TGACTTTGAT | 0.95 ± 0.013
60 | TGAGAAAATT | 1.017 ± 0.0034
61 | TGAGAGACGG | 0.968 ± 0.063
62 | TGAGAGGATC | 1.018 ± 0.0025
63 | TGAGAGGCGT | 1.022 ± 0.0098
64 | TGAGATAAAG | 0.967 ± 0.001
65 | TGAGATAGCT | 0.998 ± 0.033
66 | TGAGATGCGG | 1.03 ± 0.038
67 | TGAGATGGTT | 1.01 ± 0.029
68 | TGAGATTCTG | 1.05 ± 0.043
69 | TGAGCACCGT | 1 ± 0.017
70 | TGAGCACGGG | 1.03 ± 0.02
71 | TGAGCCTGCT | 0.98 ± 0.012
72 | TGAGCGGTCA | 0.99 ± 0.015
73 | TGAGCTAGCT | 1.01 ± 0.033
74 | TGAGCTGAGG | 0.957 ± 0.049
75 | TGAGCTGGGG | 0.996 ± 0.02

Row | Sequence | switch fluorescence ratio
76 | TGAGGATTTT | 1.05 ± 0.1
77 | TGAGGCATGT | 1.05 ± 0.036
78 | TGAGGCGGGG | 0.9642 ± 0.0059
79 | TGAGGGAGCA | 1.01 ± 0.11
80 | TGAGGGAGTG | 0.996 ± 0.021
81 | TGAGGGCATT | 1 ± 0.012
82 | TGAGGGGCGC | 0.988 ± 0.028
83 | TGAGGGGTGA | 1.01 ± 0.029
84 | TGAGGGTTTA | 0.991 ± 0.017
85 | TGAGGTATCT | 1.007 ± 0.0091
86 | TGAGGTGCGG | 0.996 ± 0.024
87 | TGAGGTTAAC | 0.957 ± 0.023
88 | TGAGGTTCGA | 0.98 ± 0.03
89 | TGAGTGAGTG | 0.9933 ± 0.0015
90 | TGAGTGGCTT | 0.967 ± 0.034
91 | TGAGTGGGGA | 1 ± 0.013
92 | TGAGTGGGGT | 1.02 ± 0.031
93 | TGAGTTAGGG | 0.985 ± 0.017
94 | TGAGTTTCCA | 0.958 ± 0.011
95 | TGAGTTTCTG | 0.968 ± 0.014
96 | TGAGTTTTAC | 1.04 ± 0.03
97 | TGATAACCGC | 1.1 ± 0.039
98 | TGATAAGAGT | 1.01 ± 0.011
99 | TGATAAGTG | 0.9877 ± 0.0016
100 | TGATAATGTT | 0.997 ± 0.014
